Non-standard residues stand in square brackets, D forms with d. *: point of attachment. 4‑Guanidinomethylbenzoyl = N=C(N)NCc1ccc(C(=O)*)cc1; Phe(4-NH2) = Nc1ccc(C[C@H](N)C(=O)O)cc1; 1Nal = N[C@@H](Cc1cccc2ccccc12)C(=O)O; 4Pal = N[C@@H](Cc1ccncc1)C(=O)O; Cha = N[C@@H](CC1CCCCC1)C(=O)O; Nle = CCCC[C@H](N)C(=O)O; Aib = CC(C)(N)C(=O)O; Bz = O=C(c1ccccc1)*
How the values were obtained:
human Y2 receptor [1] = biological target: T1, human Y2 receptor (Homo sapiens, UniProt P49146); test: Receptor Binding Assay (RBA) for Human Y2, [125I]-PYY displacement on hY2R/CHO membrane fraction; conditions: IC50 of test compound/IC50 of PYY(3-36) (PYY(3-36) taken as 1)
T1 construct: expressed in transfected cells; membrane fraction
T1 sequence (P49146 1-381): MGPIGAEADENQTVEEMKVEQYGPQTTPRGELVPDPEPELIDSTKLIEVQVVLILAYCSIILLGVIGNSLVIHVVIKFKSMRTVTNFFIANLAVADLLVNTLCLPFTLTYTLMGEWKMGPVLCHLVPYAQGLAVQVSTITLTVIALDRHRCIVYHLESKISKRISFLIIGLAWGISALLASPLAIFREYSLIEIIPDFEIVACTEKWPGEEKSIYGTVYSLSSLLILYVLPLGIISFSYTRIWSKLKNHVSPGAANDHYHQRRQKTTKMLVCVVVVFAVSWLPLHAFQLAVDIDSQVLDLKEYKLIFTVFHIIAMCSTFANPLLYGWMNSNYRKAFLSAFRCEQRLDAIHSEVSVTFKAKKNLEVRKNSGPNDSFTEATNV
In short: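 Read-out is [125I]-PYY displacement from membranes of CHO/dhfr− cells stably transfected with human Y2R. Membranes were obtained by disrupting cells in a buffer of 10 mM NaHCO3, 5 mM EDTA and protease inhibitors.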

human Y2 receptor [2] = biological target: T1, human Y2 receptor; test: Human Y2 Receptor G Protein Binding Assay (GBA), [35S]GTPγS; type: biochemical; conditions: EC50 of test compound/EC50 of PYY(3-36) (PYY3-36 taken as 1), hY2R/CHO membrane fraction
In short: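 Agonism measured as [35S]GTPγS binding, read by GF/C filtration and scintillation counting after 120 min at room temperature, using human Y2 membranes at 1 μg protein/mL in pH 7.4 Tris/MgCl2/NaCl/GDP buffer. Compound serially diluted 100 μM–1 nM; EC50 normalized to PYY(3-36) (ratio = compound/PYY).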

Substance | RBA IC50 Ratio (human Y2 receptor [1]) | GBA EC50 Ratio (human Y2 receptor [2])
Benzoyl-[Cha27,36, Ile28, Phe(4NH2)31]-PYY(25-36) (Bz-RH[Cha]INL[Phe(4-NH2)]TRQR[Cha]-NH2; SMILES CC[C@H](C)[C@H](NC(=O)[C@H](CC1CCCCC1)NC(=O)[C@H](Cc1c[nH]cn1)NC(=O)[C@H](CCCNC(=N)N)NC(=O)c1ccccc1)C(=O)N[C@@H](CC(N)=O)C(=O)N[C@@H](CC(C)C)C(=O)N[C@@H](Cc1ccc(N)cc1)C(=O)N[C@H](C(=O)N[C@@H](CCCNC(=N)N)C(=O)N[C@@H](CCC(N)=O)C(=O)N[C@@H](CCCNC(=N)N)C(=O)N[C@@H](CC1CCCCC1)C(N)=O)[C@@H](C)O) [compound No. 72] | 5.0 | 5.4
Ac-[Glu23, D-Pro24, Nle25, Pya(4)26, Cha27,36, Aib28,31, Lys30]-PYY(23-36) (Ac-E[dP][Nle][4Pal][Cha][Aib]NK[Aib]TRQR[Cha]-NH2; SMILES CCCC[C@H](NC(=O)[C@H]1CCCN1C(=O)[C@H](CCC(=O)O)NC(C)=O)C(=O)N[C@@H](Cc1ccncc1)C(=O)N[C@@H](CC1CCCCC1)C(=O)NC(C)(C)C(=O)N[C@@H](CC(N)=O)C(=O)N[C@@H](CCCCN)C(=O)NC(C)(C)C(=O)N[C@H](C(=O)N[C@@H](CCCNC(=N)N)C(=O)N[C@@H](CCC(N)=O)C(=O)N[C@@H](CCCNC(=N)N)C(=O)N[C@@H](CC1CCCCC1)C(N)=O)[C@@H](C)O) [compound No. 227] | 7.5 | 6.9
4-Guanidinomethylbenzoyl-[Nle25, Cha27,28,31,36, Arg30]-PYY(25-36) ({4‑Guanidinomethylbenzoyl}-[Nle]H[Cha][Cha]NR[Cha]TRQR[Cha]-NH2; SMILES CCCC[C@H](NC(=O)c1ccc(CNC(=N)N)cc1)C(=O)N[C@@H](Cc1c[nH]cn1)C(=O)N[C@@H](CC1CCCCC1)C(=O)N[C@@H](CC1CCCCC1)C(=O)N[C@@H](CC(N)=O)C(=O)N[C@@H](CCCNC(=N)N)C(=O)N[C@@H](CC1CCCCC1)C(=O)N[C@H](C(=O)N[C@@H](CCCNC(=N)N)C(=O)N[C@@H](CCC(N)=O)C(=O)N[C@@H](CCCNC(=N)N)C(=O)N[C@@H](CC1CCCCC1)C(N)=O)[C@@H](C)O) [compound No. 76] | 7.2 | 4.5

Next, values leading:

RBA IC50 Ratio (human Y2 receptor [1]) | GBA EC50 Ratio (human Y2 receptor [2]) | Substance
13 | 6.0 | Benzoyl-[Ser26, Cha27,28,36, Aib31]-PYY(25-36) (Bz-RS[Cha][Cha]NL[Aib]TRQR[Cha]-NH2; SMILES CC(C)C[C@H](NC(=O)[C@H](CC(N)=O)NC(=O)[C@H](CC1CCCCC1)NC(=O)[C@H](CC1CCCCC1)NC(=O)[C@H](CO)NC(=O)[C@H](CCCNC(=N)N)NC(=O)c1ccccc1)C(=O)NC(C)(C)C(=O)N[C@H](C(=O)N[C@@H](CCCNC(=N)N)C(=O)N[C@@H](CCC(N)=O)C(=O)N[C@@H](CCCNC(=N)N)C(=O)N[C@@H](CC1CCCCC1)C(N)=O)[C@@H](C)O) [compound No. 97]
2.9 | 1.7 | Ac-[D-Pro24, Pya(4)26, Nal(1)27, Aib28,31, Lys30, Cha36]-PYY(23-36) (Ac-S[dP]R[4Pal][1Nal][Aib]NK[Aib]TRQR[Cha]-NH2; SMILES CC(=O)N[C@@H](CO)C(=O)N1CCC[C@@H]1C(=O)N[C@@H](CCCNC(=N)N)C(=O)N[C@@H](Cc1ccncc1)C(=O)N[C@@H](Cc1cccc2ccccc12)C(=O)NC(C)(C)C(=O)N[C@@H](CC(N)=O)C(=O)N[C@@H](CCCCN)C(=O)NC(C)(C)C(=O)N[C@H](C(=O)N[C@@H](CCCNC(=N)N)C(=O)N[C@@H](CCC(N)=O)C(=O)N[C@@H](CCCNC(=N)N)C(=O)N[C@@H](CC1CCCCC1)C(N)=O)[C@@H](C)O) [compound No. 306]

From US9260500B2, “Peptide and use thereof” (Takeda Pharmaceutical Company Limited, priority 2009, dated 2016)
